Data on 12 molecules can be found in US20240115744A1, “FIBRIN-BINDING COMPOUNDS FOR IMAGING AND TREATMENT” (Collagen Medical, LLC, priority 2019, published 2024).

*1 amine or outer side, *2 acyl side, *3 side chain or, on linkers, in order; H or OH if unused. Where a SMILES comes first, the peptide text is derived from it. Bridges are numbered along the chain shown (N, C = ends). [ ]: non-standard residue; d: D form. The star is where a group is joined. NODAGA = O=C(O)CN1CCN(CC(=O)O)CCN(C(CCC(=O)*)C(=O)O)CC1; Tyr(3-Cl) = N[C@@H](Cc1ccc(O)c(Cl)c1)C(=O)O; Nicotinoyl(6-F) = O=C(c1ccc(F)nc1)*; X1 = O=C([C@@H]1CC(O)CN1[*:1])[*:2]; Hyp = O=C(O)[C@@H]1C[C@@H](O)CN1

The nature of data set [1]: Blood analysis in rat model of carotid artery crush injury (blood clearance). In kind it is in vivo. Particulars: relative to the other compounds compared. As for the experimental part: Rat carotid endothelial injury model in vivo studies were conducted, wherein the common carotid artery is isolated and crushed briefly with a hemostat, resulting in mural thrombus formation at the site of the crush. The vessel wall fibrin is then imaged with our PET compounds. All six compounds were evaluated in this model.
Adult male Wistar rats were anesthetized by isoflurane (1-2% in medical air). Body temperature was maintained at 37° C. using a thermo-regulated heating pad. The right femoral vein and artery were cannulated for compound injection and blood sampling, respectively. Endothelial injury was induced by crush injury to the right common carotid artery (1-2 cm proximal to the carotid bifurcation) by clamping the vessel with a hemostat for 5 minutes. Immediately following the surgical procedures, rats were placed in a micro-PET/CT scanner. Compound (200-600 μL) was injected, PET-CT images were acquired, and blood samples were drawn from the femoral artery prior to compound injection and at 2, 5, 10, 15, 30, 60, 90, 120 min post injection. Tissues were harvested at the end for ex vivo analyses.
Blood samples were drawn from prior to probe injection and at 2, 5, 10, 15, 30, 60, 90, 120 min post injection. Each blood sample was weighed and counted using a gamma-counter. The activity in each sample was calculated as percent injected dose (% ID) per gram of tissue.

Data set [2] has as its target soluble fibrin fragment DD(E). Description: fluorescence polarization, displacement of the TRITC peptide from DD(E). (In general: Polarisation of emitted light reports the rotation of a fluorescent probe.)
Data set [3] concerns the target soluble fibrin fragment DD(E). Description: fluorescence polarization DD(E) assay.

On to `CC[C@H](C)[C@H](NC(=O)[C@H](Cc1cnc[nH]1)NC(=O)[C@@H]1CSSC[C@H](NC(=O)[C@@H](CCC(=O)O)NC(=O)[C@@H](Cc2ccc(O)cc2)NC(=O)CCC(C(=O)O)N2CCN(CC(=O)O)CCN(CC(=O)O)CC2)C(=O)N2CC(O)C[C@H]2C(=O)N[C@@H](Cc2ccc(O)c(Cl)c2)C(=O)NCC(=O)N[C@@H](CC(C)C)C(=O)N1)C(=O)N[C@@H](CCC(N)=O)C(N)=O` (stereo partly shown) [Compound ^68Ga-19, metal not drawn] ({NODAGA}-[dY][dE]C[X1][Tyr(3-Cl)]GLCHIQ-NH2; disulfide 3-8), for which, in data set [1] (rat carotid artery crush injury, 2-120 min post injection), the blood clearance entry is “faster blood clearance”. Moreover, the metabolic stability result in data set [1] (rat) is “better metabolic stability”.

B1: Compound 9 (peptide)
peptide: {Nicotinoyl(6-F)}-[dY][dE]C[Hyp][Tyr(3-Cl)]GLCYI[dL]-NH2
modifications: disulfide 3-8
SMILES: CC[C@H](C)[C@H](NC(=O)[C@H](Cc1ccc(O)cc1)NC(=O)[C@@H]1CSSC[C@H](NC(=O)[C@@H](CCC(=O)O)NC(=O)[C@@H](Cc2ccc(O)cc2)NC(=O)c2ccc(F)nc2)C(=O)N2C[C@H](O)C[C@H]2C(=O)N[C@@H](Cc2ccc(O)c(Cl)c2)C(=O)NCC(=O)N[C@@H](CC(C)C)C(=O)N1)C(=O)N[C@H](CC(C)C)C(N)=O
For the molecule B1, the Ki (as a rule, the dissociation constant of the complex between target and ligand, obtained from inhibition or displacement) in data set [2] was 730 nM.

B2: Compound 3 (peptide)
peptide: {Nicotinoyl(6-F)}-[dY][dE]C[Hyp][Tyr(3-Cl)]GLCHI[dL]-NH2
modifications: disulfide 3-8
SMILES: CC[C@H](C)[C@H](NC(=O)[C@H](Cc1c[nH]cn1)NC(=O)[C@@H]1CSSC[C@H](NC(=O)[C@@H](CCC(=O)O)NC(=O)[C@@H](Cc2ccc(O)cc2)NC(=O)c2ccc(F)nc2)C(=O)N2C[C@H](O)C[C@H]2C(=O)N[C@@H](Cc2ccc(O)c(Cl)c2)C(=O)NCC(=O)N[C@@H](CC(C)C)C(=O)N1)C(=O)N[C@H](CC(C)C)C(N)=O
Regarding B2, the Ki in data set [2] was found to be 140 nM. For the same molecule, the Kd (commonly the concentration at which binding is half-saturated) in data set [3] is less than 600 nM.

B3: Compound 2 (peptide)
peptide: {Nicotinoyl(6-F)}-[dY][dE]C[Hyp][Tyr(3-Cl)]GLCHIQ-NH2
modifications: disulfide 3-8
SMILES: CC[C@H](C)[C@H](NC(=O)[C@H](Cc1c[nH]cn1)NC(=O)[C@@H]1CSSC[C@H](NC(=O)[C@@H](CCC(=O)O)NC(=O)[C@@H](Cc2ccc(O)cc2)NC(=O)c2ccc(F)nc2)C(=O)N2C[C@H](O)C[C@H]2C(=O)N[C@@H](Cc2ccc(O)c(Cl)c2)C(=O)NCC(=O)N[C@@H](CC(C)C)C(=O)N1)C(=O)N[C@@H](CCC(N)=O)C(N)=O
As for B3, in data set [2], the Ki was 70 nM. The molecule also registered a dissociation constant (Kd) in data set [3] of less than 600 nM.

B4: Compound 12 (peptide)
peptide: {Nicotinoyl(6-F)}-Y[dE]C[Hyp][Tyr(3-Cl)]DLCYIQ-NH2
modifications: disulfide 3-8
SMILES: CC[C@H](C)[C@H](NC(=O)[C@H](Cc1ccc(O)cc1)NC(=O)[C@@H]1CSSC[C@H](NC(=O)[C@@H](CCC(=O)O)NC(=O)[C@H](Cc2ccc(O)cc2)NC(=O)c2ccc(F)nc2)C(=O)N2C[C@H](O)C[C@H]2C(=O)N[C@@H](Cc2ccc(O)c(Cl)c2)C(=O)N[C@@H](CC(=O)O)C(=O)N[C@@H](CC(C)C)C(=O)N1)C(=O)N[C@@H](CCC(N)=O)C(N)=O
Regarding B4, in data set [2], the Ki stood at 1200 nM.

B5: Compound 14 (peptide)
peptide: {Nicotinoyl(6-F)}-Y[dE]C[Hyp][Tyr(3-Cl)][dD]LCYIQ-NH2
modifications: disulfide 3-8
SMILES: CC[C@H](C)[C@H](NC(=O)[C@H](Cc1ccc(O)cc1)NC(=O)[C@@H]1CSSC[C@H](NC(=O)[C@@H](CCC(=O)O)NC(=O)[C@H](Cc2ccc(O)cc2)NC(=O)c2ccc(F)nc2)C(=O)N2C[C@H](O)C[C@H]2C(=O)N[C@@H](Cc2ccc(O)c(Cl)c2)C(=O)N[C@H](CC(=O)O)C(=O)N[C@@H](CC(C)C)C(=O)N1)C(=O)N[C@@H](CCC(N)=O)C(N)=O
Regarding B5, the Ki in data set [2] came out at 2760 nM. Against the preceding molecule, the Ki is about 2.3-fold higher.

B6: Compound 7 (peptide)
peptide: {Nicotinoyl(6-F)}-Y[dE]C[Hyp][Tyr(3-Cl)]GLCYIQ-NH2
modifications: disulfide 3-8
SMILES: CC[C@H](C)[C@H](NC(=O)[C@H](Cc1ccc(O)cc1)NC(=O)[C@@H]1CSSC[C@H](NC(=O)[C@@H](CCC(=O)O)NC(=O)[C@H](Cc2ccc(O)cc2)NC(=O)c2ccc(F)nc2)C(=O)N2C[C@H](O)C[C@H]2C(=O)N[C@@H](Cc2ccc(O)c(Cl)c2)C(=O)NCC(=O)N[C@@H](CC(C)C)C(=O)N1)C(=O)N[C@@H](CCC(N)=O)C(N)=O
On to B6, for which the Ki in data set [2] was found to be 580 nM. This molecule yielded a dissociation constant (Kd) in data set [3] of less than 600 nM.

B7: Compound 13 (peptide)
peptide: {Nicotinoyl(6-F)}-Y[dE]C[Hyp][Tyr(3-Cl)]GLCYI[dQ]-NH2
modifications: disulfide 3-8
SMILES: CC[C@H](C)[C@H](NC(=O)[C@H](Cc1ccc(O)cc1)NC(=O)[C@@H]1CSSC[C@H](NC(=O)[C@@H](CCC(=O)O)NC(=O)[C@H](Cc2ccc(O)cc2)NC(=O)c2ccc(F)nc2)C(=O)N2C[C@H](O)C[C@H]2C(=O)N[C@@H](Cc2ccc(O)c(Cl)c2)C(=O)NCC(=O)N[C@@H](CC(C)C)C(=O)N1)C(=O)N[C@H](CCC(N)=O)C(N)=O
As for B7, the inhibitory constant (Ki) in data set [2] was 1250 nM.

B8: Compound 6 (peptide)
peptide: {Nicotinoyl(6-F)}-[dY][dE]C[Hyp][Tyr(3-Cl)]GLCYIQ-NH2
modifications: disulfide 3-8
SMILES: CC[C@H](C)[C@H](NC(=O)[C@H](Cc1ccc(O)cc1)NC(=O)[C@@H]1CSSC[C@H](NC(=O)[C@@H](CCC(=O)O)NC(=O)[C@@H](Cc2ccc(O)cc2)NC(=O)c2ccc(F)nc2)C(=O)N2C[C@H](O)C[C@H]2C(=O)N[C@@H](Cc2ccc(O)c(Cl)c2)C(=O)NCC(=O)N[C@@H](CC(C)C)C(=O)N1)C(=O)N[C@@H](CCC(N)=O)C(N)=O
Consider B8, for which the Ki in data set [2] is 340 nM. In data set [3], this molecule came in with a Kd of less than 600 nM.

B9: Compound 4 (peptide)
peptide: {Nicotinoyl(6-F)}-Y[dE]C[Hyp][Tyr(3-Cl)]GLCHIQ-NH2
modifications: disulfide 3-8
SMILES: CC[C@H](C)[C@H](NC(=O)[C@H](Cc1c[nH]cn1)NC(=O)[C@@H]1CSSC[C@H](NC(=O)[C@@H](CCC(=O)O)NC(=O)[C@H](Cc2ccc(O)cc2)NC(=O)c2ccc(F)nc2)C(=O)N2C[C@H](O)C[C@H]2C(=O)N[C@@H](Cc2ccc(O)c(Cl)c2)C(=O)NCC(=O)N[C@@H](CC(C)C)C(=O)N1)C(=O)N[C@@H](CCC(N)=O)C(N)=O
In turn, B9 yielded a Ki in data set [2] of 180 nM. The same molecule yielded a Kd in data set [3] of less than 600 nM.

B10: Compound 8 (peptide)
peptide: {Nicotinoyl(6-F)}-Y[dE]C[Hyp][Tyr(3-Cl)]GLCHI[dL]-NH2
modifications: disulfide 3-8
SMILES: CC[C@H](C)[C@H](NC(=O)[C@H](Cc1c[nH]cn1)NC(=O)[C@@H]1CSSC[C@H](NC(=O)[C@@H](CCC(=O)O)NC(=O)[C@H](Cc2ccc(O)cc2)NC(=O)c2ccc(F)nc2)C(=O)N2C[C@H](O)C[C@H]2C(=O)N[C@@H](Cc2ccc(O)c(Cl)c2)C(=O)NCC(=O)N[C@@H](CC(C)C)C(=O)N1)C(=O)N[C@H](CC(C)C)C(N)=O
B10 yielded a Ki in data set [2] of 640 nM.

B11: Compound 5 (peptide)
peptide: {Nicotinoyl(6-F)}-Y[dE]C[Hyp][Tyr(3-Cl)]GLCHI[dQ]-NH2
modifications: disulfide 3-8
SMILES: CC[C@H](C)[C@H](NC(=O)[C@H](Cc1c[nH]cn1)NC(=O)[C@@H]1CSSC[C@H](NC(=O)[C@@H](CCC(=O)O)NC(=O)[C@H](Cc2ccc(O)cc2)NC(=O)c2ccc(F)nc2)C(=O)N2C[C@H](O)C[C@H]2C(=O)N[C@@H](Cc2ccc(O)c(Cl)c2)C(=O)NCC(=O)N[C@@H](CC(C)C)C(=O)N1)C(=O)N[C@H](CCC(N)=O)C(N)=O
In data set [2], B11 gave a Ki of 230 nM. In addition, the Kd in data set [3] was less than 600 nM.
